Measurements reported in US20240309112A1 (MITSUBISHI TANABE PHARMA, published 2024).

How the values were obtained:
[1] = biological target: T1, biotin-labeled human PAD4 protein (human, UniProt Q9UM07 1-663, biotin on the Avi tag (biotin ligase BirA)); assay: SPR, Biacore T200, biotin-labeled human PAD4 captured on chip, IgG as analyte
T1 construct: also called Avi tag-human PAD4; biotin-labeled PAD4; not shown: Avi tag left on the N-terminal side after the GST tag was cleaved with PreScission Protease
T1 sequence (Q9UM07 whole entry): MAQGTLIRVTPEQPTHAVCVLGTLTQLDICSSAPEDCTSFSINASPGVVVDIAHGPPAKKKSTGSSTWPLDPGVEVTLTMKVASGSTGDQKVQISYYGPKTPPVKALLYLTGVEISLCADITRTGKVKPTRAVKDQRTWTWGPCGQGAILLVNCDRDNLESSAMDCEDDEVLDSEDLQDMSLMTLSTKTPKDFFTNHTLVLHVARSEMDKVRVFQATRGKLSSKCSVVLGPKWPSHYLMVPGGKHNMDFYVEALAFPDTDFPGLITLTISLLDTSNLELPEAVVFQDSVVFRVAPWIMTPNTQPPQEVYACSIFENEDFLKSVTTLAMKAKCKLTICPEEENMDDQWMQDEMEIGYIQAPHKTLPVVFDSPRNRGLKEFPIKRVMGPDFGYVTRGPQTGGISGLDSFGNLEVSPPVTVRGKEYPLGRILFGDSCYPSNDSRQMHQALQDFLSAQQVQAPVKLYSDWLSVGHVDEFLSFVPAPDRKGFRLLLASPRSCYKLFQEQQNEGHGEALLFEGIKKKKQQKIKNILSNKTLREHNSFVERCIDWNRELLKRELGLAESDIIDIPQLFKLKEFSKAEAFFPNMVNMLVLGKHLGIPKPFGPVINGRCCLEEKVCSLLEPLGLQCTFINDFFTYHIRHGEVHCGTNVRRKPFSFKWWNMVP

[2] = biological target: Human PAD4 (enzyme inhibition assays) (human, UniProt Q9UM07 1-663, limits assumed); assay: cell-based or functional assay
Human PAD4 (enzyme inhibition assays), sequence (Q9UM07 whole entry): as above

[3] = biological target: T1, biotin-labeled human PAD4 protein; assay: SPR, Biacore T200, biotin-labeled human PAD4 captured on chip, antibody as analyte, single-cycle, 1:1 model
Description: A biotin-labeled human PAD4 protein was immobilized on a sensor chip using a Biotin Capture Kit (GE Healthcare). The PAD4 protein was prepared to 0.5 μg/mL using HBS-EP+ and used as a ligand solution. The ligand solution was added to a flow cell at a flow rate of 10 μL/min for 30 seconds, and then HBS-EP+ was added for 60 seconds. A flow cell to which no ligand solution was added was used as a reference cell. The test antibody was prepared from several hundred pM to several nM using HBS-EP+ and used as an analyte solution. Further, a running buffer solution was used as a blank solution. The blank solution or the analyte solution was added at a flow rate of 30 μL/min for 180 seconds using a single-cycle method, and a dissociation time was 1200 seconds. A sensorgram of the reference cell is subtracted from a sensorgram of the flow cell to which the ligand was added when the blank solution or the analyte solution was added, and further, a sensorgram to which the blank solution was added was subtracted from the sensorgram to which the analyte solution was added, and the result was used for analysis. Binding parameters were calculated using a 1:1 binding model using Biacore T200 Evaluation software (GE Healthcare). […] The dissociation constants of the antibodies 2-1-47, 3-1-39, 3-2-37, and 4-2-25 with improved complementarity determining regions with respect to human PAD4 protein were respectively 31, 48, 73, and 20 pM.

[4] = biological target: T2, human PAD4 (Cayman Chemical company, Cat 10500) (human, UniProt Q9UM07 1-663); assay: SPR, Biacore T200, antibody captured on Protein A chip, 50 nM human PAD4 as analyte; antigen binding amount divided by antibody binding amount
T2 construct: Bought protein
T2 sequence (Q9UM07 whole entry): as above
Description: In order to investigate an antigen-binding ability after the storage, antigen-binding activity measurements were performed using a surface plasmon resonance apparatus Biacore T200 (GE Healthcare). Cryopreserved test antibodies and test antibodies stored at 4° C. or 40° C. for 4 weeks were prepared to 10 μg/mL using a running buffer solution HBS-EP+. Using a Series S Sensorchip Protein A (GE Healthcare), a test antibody solution was added to a flow cell 2 at a flow rate of 10 μL/min for 60 seconds and immobilized on a sensor chip. A flow cell 1 was used as a reference cell. A binding amount 55 seconds after the completion of the addition of the test antibody to the flow cell 2 was subtracted from a binding amount of the flow cell 1 to obtain an antibody binding amount. Next, human PAD4 (Cayman Chemical company, Cat 10500) was prepared to 50 nM using HBS-EP+ and used as an analyte solution. The analyte solution was added at a flow rate of 30 μL/min for 120 seconds to obtain a sensorgram of a bound phase. A binding amount 5 seconds before the completion of the addition of the analyte solution to the flow cell 2 was subtracted from a binding amount of the flow cell 1 to obtain an antigen binding amount. Subsequently, a running buffer solution was added for 180 seconds to obtain a sensorgram of a dissociated phase. The measurements were performed at 25° C. The antibody binding amount and the antigen binding amount were calculated using a data analysis program (GE Healthcare, Biacore T200 Evaluation Software v3.1), and the antigen binding amount under each condition was divided by the antibody binding amount to obtain a relative antigen binding amount. There was no change between the relative antigen-binding amount of a cryopreserved test antibody and the relative antigen-binding amount of a test antibody stored at 4° C. The relative antigen-binding amounts of various test antibodies stored at 40° C. for 4 weeks were compared to the relative antigen-binding amounts of the test antibodies stored at 4° C. for 4 weeks, and the antigen-binding activities were determined.

[5] = biological target: T1, biotin-labeled human PAD4 protein; assay: SPR, Biacore T200, biotin-labeled human PAD4 captured on chip, antibody as analyte, single-cycle, 1:1 model; remark: listed apart in the source
Description: Binding affinities of the test antibodies G8 and G8ss with respect to human PAD4 proteins were determined by measuring a dissociation constant (KD) in HBS-EP+ using a surface plasmon resonance apparatus Biacore T200 (GE Healthcare). A biotin-labeled human PAD4 protein was immobilized on a sensor chip using a Biotin Capture Kit (GE Healthcare). The PAD4 protein was prepared to 0.25 μg/mL using HBS-EP+ and used as a ligand solution. The ligand solution was added to a flow cell at a flow rate of […] for 30 seconds, and then HBS-EP+ was added for 60 seconds. A flow cell to which no ligand solution was added was used as a reference cell. The test antibody was prepared from several hundred pM to several nM using HBS-EP+ and used as an analyte solution. Further, a running buffer solution was used as a blank solution. The blank solution or the analyte solution was added at a flow rate of 30 μL/min for 180 seconds using a single-cycle method, and a dissociation time was 1200 seconds. A sensorgram of the reference cell is subtracted from a sensorgram of the flow cell to which the ligand was added when the blank solution or the analyte solution was added, and further, a sensorgram to which the blank solution was added was subtracted from the sensorgram to which the analyte solution was added, and the result was used for analysis. Binding parameters were calculated using a 1:1 binding model using Biacore T200 Evaluation software (GE Healthcare).

Row | Binder | Kd [1] [nM] | koff [1] [s⁻¹] | kon [1] [M⁻¹ s⁻¹] | IC50, human PAD4 enzyme inhibitory activity (citrullination of BAEE, colorimetric) [2] [nM] | Kd [3] [nM] | koff [3] [s⁻¹] | kon [3] [M⁻¹ s⁻¹] | antigen-binding activity after storage at 40° C. for 4 weeks, relative to storage at 4° C. [4] [%] | Kd [5] [nM] | koff [5] [s⁻¹] | kon [5] [M⁻¹ s⁻¹]
1 | Lib2(4R)-1-47 (antibody, V domains shown, Tested as full-length antibody (human IgG1/human k) from Expi293; also called Lib(4R)-1-47) VH: EVQLLESGGGLVQPGGSLRLSCAASGFTFSTYAMGWVRQAPGKGLEFVAAIRNDGSWTGYGTPYKTRFTISRDNSKNTLYLQMNSLRAEDTAVYYCAKYTGSSGGSIGAWGQGTLVTVSS VL: SYELTQPPSVSVSPGQTARITCSGGNRNYYYGWYQQKPGQAPVTVIYANDKRPSGIPERFSGSNSGSTTTLTISGVQAEDEADYYCGTATTGKYVFGGGTKLTVLG | 0.0175 | 0.000164 | 9.39e+06 | 9.6 | – | – | – | – | – | – | –
2 | anti-PAD4 antibody 2-1-47 (antibody, human IgG1, lambda, V domains shown, Lib2(4R)-1-47 with the 84th asparagine of the heavy chain substituted with serine; full-length IgG from ExpiCHO) VH: EVQLLESGGGLVQPGGSLRLSCAASGFTFSTYAMGWVRQAPGKGLEFVAAIRNDGSWTGYGTPYKTRFTISRDNSKNTLYLQMSSLRAEDTAVYYCAKYTGSSGGSIGAWGQGTLVTVSS VL: SYELTQPPSVSVSPGQTARITCSGGNRNYYYGWYQQKPGQAPVTVIYANDKRPSGIPERFSGSNSGSTTTLTISGVQAEDEADYYCGTATTGKYVFGGGTKLTVLG | – | – | – | 12.2 | 0.031 | 0.000507 | 1.61e+07 | 95.6 | – | – | –
3 | Lib1(6R)-1-39 (antibody, human IgG1, lambda, V domains shown, Tested as full-length antibody (human IgG1/human k) from Expi293) VH: EVQLLESGGGLVQPGGSLRLSCAASGFTFSTYAMGWVRQAPGKGLEFVAAIRNDGSWTGTSVNAKTRFTISRDNSKNTLYLQMNSLRAEDTAVYYCAKYTGSSGGSIGAWGQGTLVTVSS VL: SYELTQPPSVSVSPGQTARITCSGGNRNYYYGWYQQKPGQAPVTVIYANDKRPSGIPERFSGSNSGSTTTLTISGVQAEDEADYYCGTATTGKYVFGGGTKLTVLG | 0.0183 | 0.000108 | 5.9e+06 | 8.7 | – | – | – | – | – | – | –
4 | Lib1(6R)-2-37 (antibody, human IgG1, lambda, V domains shown, Tested as full-length antibody (human IgG1/human k) from Expi293) VH: EVQLLESGGGLVQPGGSLRLSCAASGFTFSTYAMGWVRQAPGKGLEFVAAIRNDGSWTGIGYNQKSRFTISRDNSKNTLYLQMNSLRAEDTAVYYCGKYTGSSGGSIGAWGQGTLVTVSS VL: SYELTQPPSVSVSPGQTARITCSGGNRNYYYGWYQQKPGQAPVTVIYANDKRPSGIPERFSGSNSGSTTTLTISGVQAEDEADYYCGTALTGKYVFGGGTKLTVLG | 0.0358 | 0.000361 | 1.01e+07 | 13.4 | – | – | – | – | – | – | –
5 | humanized anti-PAD4 antibody G8ss (antibody, human IgG1, lambda, V domains shown, G8 with the 84th asparagine of the heavy chain substituted with serine; full-length IgG; also called test antibody G8ss) VH: not shown VL: SYELTQPPSVSVSPGQTARITCSGGNRNYYYGWYQQKPGQAPVTVIYANDKRPSGIPERFSGSNSGSTTTLTISGVQAEDEADYYCGTADTGKYVFGGGTKLTVLG | – | – | – | 20.3 | 0.199 | 0.00122 | 6.15e+06 | 82.2 | 0.276 | 0.00176 | 6.37e+06
6 | humanized anti-PAD4 antibody G8 (antibody, human IgG1, lambda, V domains shown, Full-length IgG, described in WO 2016/143753; also called test antibody G8; parent clone G8) VH: not shown VL: SYELTQPPSVSVSPGQTARITCSGGNRNYYYGWYQQKPGQAPVTVIYANDKRPSGIPERFSGSNSGSTTTLTISGVQAEDEADYYCGTADTGKYVFGGGTKLTVLG | 0.208 | 0.00146 | 7.03e+06 | 21.6 | – | – | – | – | 0.214 | 0.00165 | 7.7e+06
7 | Lib2(5R)-2-25 (antibody, human IgG1, lambda, V domains shown, Tested as full-length antibody (human IgG1/human k) from Expi293) VH: EVQLLESGGGLVQPGGSLRLSCAASGFTFSTYAMGWVRQAPGKGLEFVAAIRNDGSWTGYPPPLKGRFTISRDNSKNTLYLQMNSLRAEDTAVYYCAKYTGSSGGSIGAWGQGTLVTVSS VL: SYELTQPPSVSVSPGQTARITCSGGNRNYYYGWYQQKPGQAPVTVIYANDKRPSGIPERFSGSNSGSTTTLTISGVQAEDEADYYCGTAYTGKYVFGGGTKLTVLG | 0.0158 | 0.000202 | 1.28e+07 | 8.3 | – | – | – | – | – | – | –
8 | anti-PAD4 antibody 4-2-25 (antibody, human IgG1, lambda, V domains shown, Lib2(5R)-2-25 with the 84th asparagine of the heavy chain substituted with serine; full-length IgG from ExpiCHO) VH: EVQLLESGGGLVQPGGSLRLSCAASGFTFSTYAMGWVRQAPGKGLEFVAAIRNDGSWTGYPPPLKGRFTISRDNSKNTLYLQMSSLRAEDTAVYYCAKYTGSSGGSIGAWGQGTLVTVSS VL: SYELTQPPSVSVSPGQTARITCSGGNRNYYYGWYQQKPGQAPVTVIYANDKRPSGIPERFSGSNSGSTTTLTISGVQAEDEADYYCGTAYTGKYVFGGGTKLTVLG | – | – | – | 7.6 | 0.02 | 0.000299 | 1.47e+07 | 97 | – | – | –
9 | anti-PAD4 antibody 3-1-39 (antibody, human IgG1, lambda, V domains shown, Lib1(6R)-1-39 with the 84th asparagine of the heavy chain substituted with serine; full-length IgG from ExpiCHO) VH: EVQLLESGGGLVQPGGSLRLSCAASGFTFSTYAMGWVRQAPGKGLEFVAAIRNDGSWTGTSVNAKTRFTISRDNSKNTLYLQMSSLRAEDTAVYYCAKYTGSSGGSIGAWGQGTLVTVSS VL: SYELTQPPSVSVSPGQTARITCSGGNRNYYYGWYQQKPGQAPVTVIYANDKRPSGIPERFSGSNSGSTTTLTISGVQAEDEADYYCGTATTGKYVFGGGTKLTVLG | – | – | – | 8.8 | 0.048 | 0.000626 | 1.3e+07 | 93.9 | – | – | –
10 | anti-PAD4 antibody 3-2-37 (antibody, human IgG1, lambda, V domains shown, Lib1(6R)-2-37 with the 84th asparagine of the heavy chain substituted with serine; full-length IgG from ExpiCHO) VH: EVQLLESGGGLVQPGGSLRLSCAASGFTFSTYAMGWVRQAPGKGLEFVAAIRNDGSWTGIGYNQKSRFTISRDNSKNTLYLQMSSLRAEDTAVYYCGKYTGSSGGSIGAWGQGTLVTVSS VL: SYELTQPPSVSVSPGQTARITCSGGNRNYYYGWYQQKPGQAPVTVIYANDKRPSGIPERFSGSNSGSTTTLTISGVQAEDEADYYCGTALTGKYVFGGGTKLTVLG | – | – | – | 15.3 | 0.073 | 0.000617 | 8.51e+06 | 94.7 | – | – | –
